Measurements: patent publication US20250297004A1, “NECTIN-4 BINDING AGENTS” (INNATE PHARMA, priority 2022, published 2025)

T1: human Nectin-4 Mutant 6 (H238A/I239T/H241Q) (Homo sapiens, UniProt Q96NY8, H238A/H241Q/I239T)
T1 construct: expressed in transfected cells; host or cells: HEK293T
T1 sequence (Q96NY8 32-510 H238A/I239T/H241Q): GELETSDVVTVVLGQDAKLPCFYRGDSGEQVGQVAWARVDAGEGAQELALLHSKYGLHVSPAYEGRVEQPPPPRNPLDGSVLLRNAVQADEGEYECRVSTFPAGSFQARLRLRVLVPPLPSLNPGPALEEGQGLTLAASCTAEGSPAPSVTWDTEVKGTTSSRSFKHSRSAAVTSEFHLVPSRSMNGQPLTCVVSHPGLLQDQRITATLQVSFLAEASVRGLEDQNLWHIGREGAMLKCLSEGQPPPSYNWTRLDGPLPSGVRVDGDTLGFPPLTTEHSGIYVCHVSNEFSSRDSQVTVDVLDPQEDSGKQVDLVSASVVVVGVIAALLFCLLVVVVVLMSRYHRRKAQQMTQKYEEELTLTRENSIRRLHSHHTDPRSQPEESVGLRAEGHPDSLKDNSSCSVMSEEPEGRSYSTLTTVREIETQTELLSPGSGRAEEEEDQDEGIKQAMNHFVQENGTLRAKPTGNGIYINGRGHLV

T2: human Nectin-4 Mutant 1 (human, UniProt Q96NY8 32-510)
T2 construct: Expressed on transfected HEK293T cells; also called S58P/G59D/Q61A/N106D/P107A
T2 chain: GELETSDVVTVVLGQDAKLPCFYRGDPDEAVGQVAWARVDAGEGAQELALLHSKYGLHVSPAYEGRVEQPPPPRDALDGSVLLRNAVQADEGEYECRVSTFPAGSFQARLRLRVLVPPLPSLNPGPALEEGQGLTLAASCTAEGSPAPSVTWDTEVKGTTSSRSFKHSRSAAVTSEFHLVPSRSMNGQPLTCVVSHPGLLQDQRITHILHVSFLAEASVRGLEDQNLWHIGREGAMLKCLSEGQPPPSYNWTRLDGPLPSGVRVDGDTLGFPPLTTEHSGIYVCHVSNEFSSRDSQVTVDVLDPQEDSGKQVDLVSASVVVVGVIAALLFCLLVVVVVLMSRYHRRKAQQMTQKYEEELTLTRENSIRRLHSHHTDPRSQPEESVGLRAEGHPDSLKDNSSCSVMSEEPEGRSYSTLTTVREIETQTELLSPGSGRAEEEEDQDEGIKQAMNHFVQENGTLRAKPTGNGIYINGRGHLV

T3: human Nectin-4 Mutant 7bis (human, UniProt Q96NY8 32-510)
T3 construct: Expressed on transfected HEK293T cells; also called A72P/G73N/K197T/S199A
T3 chain: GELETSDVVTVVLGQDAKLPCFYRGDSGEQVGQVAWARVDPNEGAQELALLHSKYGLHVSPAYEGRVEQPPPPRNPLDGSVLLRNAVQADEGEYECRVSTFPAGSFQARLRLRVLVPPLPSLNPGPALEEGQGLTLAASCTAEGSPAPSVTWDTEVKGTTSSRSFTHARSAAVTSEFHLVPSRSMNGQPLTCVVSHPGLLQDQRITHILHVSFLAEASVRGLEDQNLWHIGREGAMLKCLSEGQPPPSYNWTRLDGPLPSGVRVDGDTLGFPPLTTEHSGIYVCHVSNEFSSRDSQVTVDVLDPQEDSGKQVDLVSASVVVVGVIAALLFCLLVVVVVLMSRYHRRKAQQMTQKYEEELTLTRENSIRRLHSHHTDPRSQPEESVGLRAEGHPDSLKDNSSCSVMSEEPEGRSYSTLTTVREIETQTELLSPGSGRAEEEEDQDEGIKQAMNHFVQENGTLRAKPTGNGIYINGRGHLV

B1: 5E7 (antibody, V domains shown)
VH: QVQLQQPGAELVKPGASVKLSCKASGYIFTSYWMHWVKQRPGQGLEWIGEIDPSDSYTNYNQKFKGKATLTLDKSSSTTYMQLSSLTSEDSAVYYCVRGYGNYGDYWGQGTTLTVSSASTKGP
VL: DVVMTQAAFSNPVTLGTSASISCRSSKSLLHSNGITYLYWYLQKPGQSPQLLIYQMSNLASGVPDRFSSSGSGTDFTLRISRVEAEDVGVYYCAQNLELPWTFGGGTKLEIKRTVAAP
B2: chimeric parental 5E7 antibody (antibody, V domains shown)
VH: QVQLQQPGAELVKPGASVKLSCKASGYIFTSYWMHWVKQRPGQGLEWIGEIDPSDSYTNYNQKFKGKATLTLDKSSSTTYMQLSSLTSEDSAVYYCVRGYGNYGDYWGQGTTLTVSS
VL: DVVMTQAAFSNPVTLGTSASISCRSSKSLLHSNGITYLYWYLQKPGQSPQLLIYQMSNLASGVPDRFSSSGSGTDFTLRISRVEAEDVGVYYCAQNLELPWTFGGGTKLEIKR
notes: Chimeric antibody, murine variable domains with human constant regions; also called ch5E7; CHG1-M-1N4-5E7
B3: N41 (antibody, V domains shown)
VH: QVQLKQSGPGLVQPSQSLSITCTVSGFSLTNYGVHWVRQSPGKGLEWLGVIWSGGSTDYNAAFISRLSISKDTSKSQVFFKMNSLQADDTAIYYCARELIHAMDNWGQGTSVTVSS
VL: DIQMTQSPASLSVSVGETVTITCRASENIYSNLAWYQQKQGNSPQLLVFAATNLADGVPSRFSGSGSGTQYSLKINSLQSEDFGTYYCQHFWGTPTFGGGTKLEIK

Tests used:
[1] = molecular target: T1, human Nectin-4 Mutant 6 (H238A/I239T/H241Q); assay: Epitope mapping using Nectin-4 point mutants; assay type: binding
[2] = molecular target: human Nectin-4 (protein used in the SPR affinity measurements) (human) (UniProt Q96NY8); assay: SPR
human Nectin-4 Mutant 1 = molecular target: T2, human Nectin-4 Mutant 1; assay: binding to HEK293T cells expressing Nectin-4 mutant
[3] = molecular target: T3, human Nectin-4 Mutant 7bis; assay: as above

Molecule | association with Mutant 6 [1] | Kd [2] [nM] | koff [2] [s⁻¹] | kon [2] [M⁻¹ s⁻¹] | binding result (human Nectin-4 Mutant 1) | binding result [3]
B1 | + | – | – | – | – | –
B2 | – | 5.9 | 0.0027 | 480000 | binds | –
B3 | + | – | – | – | – | binds
